Measured values published in the supplement of paper PMC9170038.

Legend:
[1] = test system: MS2 coat protein; test: apparent KD of MS2 coat protein, switch OFF state (with FMN for OFF switches, without FMN for ON switches); designed switch direction (-1 OFF switch, 1 ON switch): -1; higher = weaker reporter binding; conditions: FMN input: 0 or 200 uM; Eterna round: R93 (includes R88 designs)
Method in brief: (§1)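 Titration buffer: 100 mM Tris-HCl pH 7.5, 80 mM KCl, 4 mM MgCl2, without or with constant ligand. Designed RNA switches transcribed on-chip from Illumina sequencing clusters received SNAP-549-labelled MS2 coat protein in twofold steps from 0.7 or 1.5 nM to 3 µM. Apparent KD is the median per design of fits to normalised cluster binding curves.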

[2] = test system: MS2 coat protein; test: apparent KD of MS2 coat protein, switch ON state; designed switch direction (-1 OFF switch, 1 ON switch): -1; higher = weaker reporter binding; conditions: FMN input: 0 or 200 uM; Eterna round: R93 (includes R88 designs)
Method in brief: as §1

Sequence | apparent KD of MS2 coat protein [1] | apparent KD of MS2 coat protein [2]
AAAAAACAUGAGGAUCACCCAUGUAAGGAUAUGCUAAAAAACGCAAAAAAAGCGAAUAGCAGAAGGUACAAAAG [Mat - Exclusion 1 - Eli mod - D81] | 70.5 nM | 36.4 nM
AAAAAGUGAGGAUAUAGCAAAGGUCACGAAAGUGACAAAGGCUAGAAGGCACAUGAGGAUCACCCAUGUCCAAG [Mat - Exclusion 4 - Eli mod - D98] | 56.5 nM | 28.6 nM
AAUAGUGGAGGAUAUACAUGAGGAUCACCCAUGUAGAAAGGAAGUGUAUAUAUGGCGUGUAGAAGGCCAAAUAA [Mai Tai 3 ala Nando] | 30.3 nM | 32.3 nM
AAGGUACGAGGAUAUACAUAGAUACAGACACAUGUACAUGUACAUGAGGAUCACCCAUGUAGAAGGCGUAUAUA [AJ 19] | 69.7 nM | 86.1 nM
AAGAAACAUGAGGAUCACCCAUGUAAGGAUAUCUAAAAGAAAAGAAAAGAAAGAAGAAAGAGAAGGUACAAAGG [Nebhetepre Mentuhotep II] | 81.3 nM | 87.3 nM
AACUAGUCAGGAUAUGCGAACAGAUAAUAAGCUACACAAAAGCAGAAGGGACAUGAGGAUCACCCAUGUAAAUA [JR_Exc004_Sub502] | 33 nM | 39.3 nM
AACGUACAUGAGGAUCACCCAUGUUAGGAUAUAUAUACAGGAAAACAUUCUAAUGUAAAUAGAAGGAACGAAAA [Bilbo Confounded 21 - Jieux - Exclusion 1] | 10.8 nM | 17.1 nM
AACAGUACAGGAUAUACAUGAGGAUCACCCAUGUGAAAAUUAAGUGGCGAACCACAGUGUAGAAGGGUACUGGA [Mat - Exclusion 3 - Eli mod - D51] | 33.5 nM | 81.8 nM
AGAAAACAUGAGGAUCACCCAUGUCAGGAUAUCUAAAAGAAAAGAAAAGAAAGAAGAAGGAGAAGGGACAAGAA [Djoser] | 21.8 nM | 21.2 nM
AAAAAACAUGAGGAUCACCCAUGUCAGGAUAUGCGAAGCAAAAAAAAAAAAAAGCGAAGUAGAAGGGACUAAAA [Exclusion1 Malc#6] | 40.1 nM | 24.4 nM
UAGAACCUAGGAUAUACUUGGGAAACUAAUGCAAAGAUAUAACAUGAGGAUCACCCAUGUAGAAGGAGGAGUAA [JR_Exc002_Sub019] | 132 nM | 84.5 nM
AAAAAACAUGAGGAUCACCCAUGUAAGGAUAUCUAAAAUAAAAGAAAAAUAAAGAAAAGGAGAAGGUAUAUGGA [JL wbt mod 24] | 37.3 nM | 27.1 nM
AAAAAUUGAGGAUAUACAUGAGGAUCACCCAUGUUAGAACAAAAAAAAGGGAAAGAAAGUAGAAGGCAAUAAAA [Ex 3 May 26] | 26.9 nM | 20 nM
GGUUGGCGAGGAUAUACAUGAGGAUCACCCAUGUGAGAGAAAAAAGUGAUAAAGAAAAGUAGAAGGCGCUGACG [salish99-ex3-32] | 2470 nM | 120 nM
CAGUACUGAGGAUAUACAUGAGGAUCACCCAUGUGAAAAAGCUACGAAAGUAGCACAUGUAGAAGGCAGUACUG [Ex3: 807] | 281 nM | 319 nM
AGGGAACAUGAGGAUCACCCAUGUGAGGAUAUACAAAAGAAAAGAAAAGAAAGAAGAAGUAGAAGGUACAAGAA [Neferka] | 43.9 nM | 23.9 nM
GAAAACAGAGGAUAUACGAAAUUGACACGAAAAGUGCAGGGACAUGAGGAUCACCCAUGUAGAAGGCUGAAGAA [Meechl MS2... 60% 1] | 48.2 nM | 27.7 nM
CUCAAGUGAGGAUAUUAAAGAAAAGAAGAGAAAGAAAAGAAUAAGAAGGCACAUGAGGAUCACCCAUGUAAGAA [EteRNA is fun!] | 33 nM | 26.4 nM
AGAAACGUAGGAUAUACAUGAGGAUCACCCAUGUAAAGAAAGAAGGGAGCCACAAGAAGUAGAAGGACGAAGAA [JR_Exc003_Sub004] | 131 nM | 33.4 nM
AAAAAUGGAGGAUAUACAUGAGGAUCACCCAUGUGUGGGCAUACUGUGUCGGCGUCAGGUAGAAGGCCAAAAAA [Gilly Gone Silly 27 - Jieux - Exclusion 3] | 47.8 nM | 36.5 nM
AAGAAACAUGAGGAUCACCCAUGUGAGGAUAUAGAAAAGAAAAGAAAAGAAAGAAGAACUAGAAGGCACAAAGG [Neferkare (IV) Khendu] | 28.8 nM | 31.1 nM
AAAAAGGGAGGAUAUACGAAAUAGGGAAACCUAAAAAAGGGACAUGAGGAUCACCCAUGUAGAAGGCCCAAGAA [Clint Eastwood 64% 6] | 223 nM | 39 nM
